Measured values from US20200368363A1 (MAGENTA THEERAPEUTICS, published 2020).

Tests used:
[1] = target: human CD2 on cells (MOLT-4 human T lymphoblast cells; primary human T-cells; primary human NK cells) (human) (UniProt P06729); test: flow cytometry on MOLT-4 cells, anti-mouse AF488 secondary, 4 C
[2] = target: T1, human CD2 on cells (MOLT-4 human T lymphoblast cells; primary human T-cells; primary human NK cells) (human, UniProt P06729 25-351); test: cell-based or functional assay
T1 sequence: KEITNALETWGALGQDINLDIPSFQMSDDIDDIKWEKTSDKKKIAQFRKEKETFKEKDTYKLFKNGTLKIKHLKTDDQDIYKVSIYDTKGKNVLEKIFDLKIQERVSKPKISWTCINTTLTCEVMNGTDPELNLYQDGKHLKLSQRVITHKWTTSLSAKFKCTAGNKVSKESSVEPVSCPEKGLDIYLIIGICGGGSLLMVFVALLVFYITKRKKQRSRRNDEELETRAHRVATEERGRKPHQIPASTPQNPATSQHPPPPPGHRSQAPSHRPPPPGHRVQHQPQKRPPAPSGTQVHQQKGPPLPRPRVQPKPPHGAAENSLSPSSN

TS1/8 (antibody)
EC50 [1]: 0.125 nM

B1: anti-CD2-amanitin ADC (RPA-2.10-AM), interchain, average drug-to-antibody ratio 6 (antibody, V domains shown)
VH: EVKLVESGGGLVKPGGSLKLSCAASGFTFSSYDMSWVRQTPEKRLEWVASISGGGFLYYLDSVKGRFTISRDNARNILYLHMTSLRSEDTAMYYCARSSYGEIMDYWGQGTSVTVSS
VL: DILLTQSPAILSVSPGERVSFSCRASQRIGTSIHWYQQRTTGSPRLLIKYASESISGIPSRFSGSGSGTDFTLSINSVESEDVADYYCQQSHGWPFTFGGGTKLEIER
NK cell viability (CellTiter-Glo), in vitro NK-cell killing assay, IC50 [2]: 5.2 pM
